These results are taken from paper PMC13168374, “Reversible DNA condensation drives natural transformation”.

Series [1] deals with ComEA from Geobacillus stearothermophilus, soluble truncation lacking the N-terminal sequence (amino acids 60-207) (Geobacillus stearothermophilus).
Series [2] has the same target. This is another data set of the same source.
For series [3] the target is unchanged. The source holds these as a separate data set.
For series [4], the target named is ComEA LL ins19aa;after;143 (Geobacillus stearothermophilus) (UniProt A0A0K9HI54). Kind of series: optical tweezers overstretching. The following applies: FP: 20 mM Tris-HCl pH 7.5, 200 mM KCl, 80 nM DNA, ~20 C (spin at 20 C; read temperature not stated); optical tweezers 23 +/- 1 C, buffer not given in material.
Series [5] addresses T1, ComEA deltaL internal_change (Geobacillus stearothermophilus) (UniProt A0A0K9HI54).
T1 sequence: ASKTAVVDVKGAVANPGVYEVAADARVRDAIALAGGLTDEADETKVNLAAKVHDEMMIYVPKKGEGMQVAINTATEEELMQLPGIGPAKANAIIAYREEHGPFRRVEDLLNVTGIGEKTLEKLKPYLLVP
Kind of series: optical tweezers overstretching. The following applies: FP: 20 mM Tris-HCl pH 7.5, 200 mM KCl, 80 nM DNA, ~20 C (spin at 20 C; read temperature not stated); optical tweezers 23 +/- 1 C, buffer not given in material.

In series [6] the target is T2, ComEA A108Y A108Y (Geobacillus stearothermophilus) (UniProt A0A0K9HI54).
T2 sequence: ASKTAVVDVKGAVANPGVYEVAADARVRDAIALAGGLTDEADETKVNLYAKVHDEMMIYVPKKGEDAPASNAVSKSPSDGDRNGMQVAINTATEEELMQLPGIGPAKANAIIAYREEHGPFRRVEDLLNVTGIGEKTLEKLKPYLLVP
Put plainly: optical tweezers overstretching. The following applies: EC50 of overstretch force increase; Ymax 12.7 pN; 23 C; FP: 20 mM Tris-HCl pH 7.5, 200 mM KCl, 80 nM DNA, ~20 C (spin at 20 C; read temperature not stated); optical tweezers 23 +/- 1 C, buffer not given in material.

The target of series [7] is T3, ComEA (soluble truncation) (Geobacillus stearothermophilus, UniProt A0A0K9HI54 60-207).
T3 sequence: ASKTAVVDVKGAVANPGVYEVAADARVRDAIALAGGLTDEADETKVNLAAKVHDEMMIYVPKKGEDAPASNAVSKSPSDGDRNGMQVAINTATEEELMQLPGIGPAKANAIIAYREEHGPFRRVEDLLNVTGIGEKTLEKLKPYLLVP
Put plainly: optical tweezers overstretching. The following applies: EC50 of overstretch force increase; Ymax 28.6 pN; 23 C; FP: 20 mM Tris-HCl pH 7.5, 200 mM KCl, 80 nM DNA, ~20 C (spin at 20 C; read temperature not stated); optical tweezers 23 +/- 1 C, buffer not given in material.

The next series deals with T4, ComEA deltaL (Geobacillus stearothermophilus, UniProt A0A0K9HI54 60-124+143-207, internal_change).
T4 sequence: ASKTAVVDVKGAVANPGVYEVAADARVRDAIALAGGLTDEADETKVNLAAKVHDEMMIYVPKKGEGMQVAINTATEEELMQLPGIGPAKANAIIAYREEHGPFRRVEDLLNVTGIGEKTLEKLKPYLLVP
Put plainly: fluorescence polarization; Kd within error of ComEA; Hill >1; value in Fig. 5c only; FP: 20 mM Tris-HCl pH 7.5, 200 mM KCl, 80 nM DNA, ~20 C (spin at 20 C; read temperature not stated); optical tweezers 23 +/- 1 C, buffer not given in material. The following applies: protein: recombinant; label: 3'-fluorescein (36-FAM) on strand 1; blunt.

The target of another series is T5, ComEA A108Y (Geobacillus stearothermophilus, UniProt A0A0K9HI54 60-207, A108Y).
T5 sequence: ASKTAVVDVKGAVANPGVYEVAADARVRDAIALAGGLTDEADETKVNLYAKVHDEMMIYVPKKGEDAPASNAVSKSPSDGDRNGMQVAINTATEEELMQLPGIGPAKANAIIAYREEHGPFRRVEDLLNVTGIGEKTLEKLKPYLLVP
Put plainly: fluorescence polarization; Hill coefficient 0.96 +/- 0.16; FP: 20 mM Tris-HCl pH 7.5, 200 mM KCl, 80 nM DNA, ~20 C (spin at 20 C; read temperature not stated); optical tweezers 23 +/- 1 C, buffer not given in material. Conditions: protein: recombinant; label: 3'-fluorescein (36-FAM) on strand 1; blunt.

In series [8] the target is T3, ComEA (soluble truncation). Put plainly: fluorescence polarization; Hill coefficient 1.56 +/- 0.28; FP: 20 mM Tris-HCl pH 7.5, 200 mM KCl, 80 nM DNA, ~20 C (spin at 20 C; read temperature not stated); optical tweezers 23 +/- 1 C, buffer not given in material. The following applies: protein: recombinant; label: 3'-fluorescein (36-FAM) on strand 1; blunt.

In series [1], “ComEA from Geobacillus stearothermophilus, soluble truncation lacking the N-terminal sequence (amino acids 60-207) (domain or fragment)” gave a condensation force produced and held for at least 1 s during the 10 s rest phase, optical tweezers, 20 nM-4 µM ComEA (value at 200 nM; buffer alone 0.03 pN) of 0.11 pN. In addition, the condensation force from an eWLC fit of the DNA released per cycle against the extension held in the rest phase, optical tweezers in [2] was determined as 0.07 pN. Besides, the fold condensation of 5.495 kbp dsDNA (bounding circle radius, negative stain electron microscopy), 200 nM-4 µM ComEA, peak value in [3] amounted to 3.5 fold.
For the molecule 6 kbp dsDNA (optical tweezers), the K half in series [4] was determined as 330 nM; in series [5], 380 nM; in [6] it was 210 nM; in series [7] it was 290 nM.

B1: 30 bp DNA duplex (dsDNA)
DNA 1: GCACTGTGAATATCACTACAGCAACCTTGA
DNA 2: TCAAGGTTGCTGTAGTGATATTCACAGTGC
For the molecule B1, the binding result with ComEA deltaL is “binds”. For the same molecule, the Kd with ComEA A108Y amounted to 1910 ± 520 nM; in [8], 660 ± 80 nM.
